Laboratory results: article doi:10.1101/2021.05.09.442808 (bioRxiv, 2021)

Legend:
[1] = molecular target: SARS-CoV S 2P prefusion-stabilized ectodomain trimer (SARS-CoV, Urbani (AAP13441, named for …, UniProt P59594, stabilised)); test: SPR
[2] = molecular target: MERS-CoV S 2P prefusion-stabilized ectodomain trimer (MERS-CoV, strain of ectodomain not …, stabilised); test: SPR

B1: S2P6 Fab fragment (Fab, V domains shown)
VH: EVQLVQSGAEVKKPGASVKVSCKASGYTFTSQYMHWVRQAPGQGLEWIGIINPSGVHTSYAQKFQGRVTLTRDTSTSTLYMELSSLRSEDTAVYYCARGSPKGAFDYWGQGTLVTVSS
VL: not shown
[1]
  Kd: 7 nM
[2]
  Kd: 12 nM
